These results are taken from PMC3561989.

For data set [1], the target named is hnRNP A1 (cited work) (UniProt P09651). Briefly: filter binding. The following applies: cited from earlier work.
Data set [2] shares this target. In words: fluorescence assay. The following applies: cited from earlier work.
The target of data set [3] is T1, Lin28 ZnF (UniProt Q9H9Z2 137-176).
T1 chain: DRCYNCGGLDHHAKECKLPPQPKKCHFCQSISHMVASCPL
Briefly: plate binding, coated protein.

Sequence of hnRNP A1 (cited work) (P09651 whole entry): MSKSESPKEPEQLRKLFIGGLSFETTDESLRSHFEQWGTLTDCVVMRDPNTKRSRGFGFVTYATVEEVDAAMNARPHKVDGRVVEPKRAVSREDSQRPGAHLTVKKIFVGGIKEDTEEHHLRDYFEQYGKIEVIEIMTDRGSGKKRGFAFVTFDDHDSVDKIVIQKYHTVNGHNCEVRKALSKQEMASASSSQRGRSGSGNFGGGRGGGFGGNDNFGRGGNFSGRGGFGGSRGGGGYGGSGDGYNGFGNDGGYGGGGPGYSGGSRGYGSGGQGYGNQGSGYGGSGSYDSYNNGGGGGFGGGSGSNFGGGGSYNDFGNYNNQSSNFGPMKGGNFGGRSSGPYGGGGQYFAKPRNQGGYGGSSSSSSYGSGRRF

The Kd is the equilibrium constant for the complex coming apart. As to “UAUGAUAGGGACUUAGGGUG [hnRNP A1 SELEX winner]”, the Kd was 1 nM in data set [1] and 2.5 nM in data set [2].

B1: pre-miR-9-1 (structured_RNA)
RNA: UCUUUGGUUAUCUAGCUGUAUGAGUGGUGUGGAGUCUUCAUAAAGCUAGAUAACCGAAAGU
As to B1, the binding result in data set [3] is on record as “binds”.
